Data reported in article PMC3574117.

Experiments:
[1] = target: PhaF phasin from Pseudomonas putida KT2440 (Pseudomonas putida KT2440); assay: AUC; sedimentation velocity; 38 µM PhaF (3.8 to 38 µM, data not shown) in 20 mM sodium phosphate pH 7.0, 150 mM NaCl, 48000 rpm, 20 °C; c(s) analysis
[2] = target: PhaF phasin from Pseudomonas putida KT2440 (Pseudomonas putida KT2440); assay: AUC; sedimentation equilibrium, short columns, 10000 and 16000 rpm, 20 mM sodium phosphate pH 7.0, 150 mM NaCl, 20 °C; single-species fit

stoichiometry N [1]: 4
stoichiometry N [2]: 4
Substance: PhaF phasin from Pseudomonas putida KT2440 (natural protein)
